Data from patent publication US20260015426A1 (23ANDME, published 2026).
Residue numbers refer to the chain shown, from its start. Numbers in names are those of the source.

Key:
[1] = biological target: T1, human IL1RAP (hu-IL1RAP) on human cells (human, UniProt Q9NPH3 21-570); test: cell-based or functional assay
T1 sequence: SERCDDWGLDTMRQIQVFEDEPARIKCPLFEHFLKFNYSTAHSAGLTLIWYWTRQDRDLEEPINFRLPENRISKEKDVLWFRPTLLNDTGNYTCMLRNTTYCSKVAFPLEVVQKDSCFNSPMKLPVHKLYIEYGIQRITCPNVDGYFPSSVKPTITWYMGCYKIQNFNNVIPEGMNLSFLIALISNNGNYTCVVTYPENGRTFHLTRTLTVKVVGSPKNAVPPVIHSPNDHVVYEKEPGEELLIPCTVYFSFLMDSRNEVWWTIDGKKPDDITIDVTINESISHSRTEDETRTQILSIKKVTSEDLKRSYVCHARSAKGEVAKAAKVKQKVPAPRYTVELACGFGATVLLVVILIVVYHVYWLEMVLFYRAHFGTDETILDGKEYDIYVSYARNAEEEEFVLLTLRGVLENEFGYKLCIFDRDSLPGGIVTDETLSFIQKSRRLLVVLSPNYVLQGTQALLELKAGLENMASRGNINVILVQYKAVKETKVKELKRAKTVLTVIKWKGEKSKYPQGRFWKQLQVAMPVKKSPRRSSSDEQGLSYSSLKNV

[2] = biological target: T2, hu-M-IL1RAP construct, positions S21-T367 (extracellular domain of the membrane form of human IL1RAP) (human, UniProt Q9NPH3 21-367); test: BLI (OCTET), mAb captured, 25 C
T2 construct: Biotinylated when captured on the Biacore chip
T2 sequence: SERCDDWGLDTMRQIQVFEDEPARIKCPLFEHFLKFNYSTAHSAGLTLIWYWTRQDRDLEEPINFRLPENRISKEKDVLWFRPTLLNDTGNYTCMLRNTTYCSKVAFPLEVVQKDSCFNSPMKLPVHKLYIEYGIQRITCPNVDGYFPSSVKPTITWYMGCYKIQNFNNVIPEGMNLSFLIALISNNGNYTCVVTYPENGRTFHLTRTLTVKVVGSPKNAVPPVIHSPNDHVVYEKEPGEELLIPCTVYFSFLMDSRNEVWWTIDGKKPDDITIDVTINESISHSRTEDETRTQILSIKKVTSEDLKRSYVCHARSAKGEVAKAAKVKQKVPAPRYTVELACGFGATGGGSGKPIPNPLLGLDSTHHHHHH
Description: All samples were placed in black 96-well plates and the experiment was performed at 25° C. […] The biosensors were equilibrated in experimental buffer at 25° C. for ten minutes prior to starting the experiment.
The resulting BLI signal from analyte association and dissociation from the immobilized antibody was analyzed using the Octet Data Analysis software (Pall ForteBio). First, a reference subtraction was performed on all recorded traces using the reference well (biosensor that underwent the same steps as experimental wells but no analyte for the Association step), then all the traces were aligned to the beginning of the Association step.

[3] = biological target: T3, cyno-M-IL1RAP construct, positions S21-T367 (cynomolgus monkey, UniProt P59822 21-367 (rhesus entry)); test: SPR, IgG analyte (apparent), pH 7.4, 37 C
T3 construct: Biotinylated when captured on the Biacore chip; also called cy-M-IL1RAP
T3 sequence: T2 sequence with L183F, T273P, K326T

[4] = biological target: T2, hu-M-IL1RAP construct, positions …; test: SPR, IgG analyte (apparent), pH 7.4, 37 C
[5] = biological target: T3, cyno-M-IL1RAP construct, positions …; test: SPR, 37 C
Description: (§1) Surface plasmon resonance (SPR) analysis was used to determine binding affinity for hu-M-IL1RAP of the purified Fabs containing the selected single, double, and triple mutations in either the VL or VH regions using a BIACORE™ 8K instrument. […] For kinetics measurements, 5 nM biotinylated hu-M-IL1RAP was captured at 10 μL/min to achieve ˜50 response units in the second flow cell (FC2). FC1 was kept as a reference. […] The sensorgrams were recorded and subjected to reference and buffer subtraction before data analysis with the BIACORE® 8K Evaluation Software (version 1.1.1.7442). Association rates (kₒₙ) and dissociation rates (koff) were calculated using a simple one-to-one Langmuir binding model. The equilibrium dissociation constant (KD) was calculated as the ratio of koff/kₒₙ.

[6] = biological target: T2, hu-M-IL1RAP construct, positions …; test: SPR, 37 C
Description: as §1

[7] = biological target: T3, cyno-M-IL1RAP construct, positions …; test: SPR, IgG analyte (apparent), 37 C, pH 7.4
Description: as §1

[8] = biological target: T2, hu-M-IL1RAP construct, positions …; test: SPR, IgG analyte (apparent), 37 C, pH 7.4
Description: as §1

[9] = biological target: T3, cyno-M-IL1RAP construct, positions …; test: SPR, IgG analyte (apparent), 37 C, pH 6
Description: as §1

[10] = biological target: T2, hu-M-IL1RAP construct, positions …; test: SPR, IgG analyte (apparent), 37 C, pH 6
Description: as §1

[11] = biological target: T1, human IL1RAP (hu-IL1RAP) on human cells; test: cell-based or functional assay; remark: listed apart in the source

B1: c11C5_C59Y (C59Y variant of c11C5) (antibody, IgG1, V domains shown)
VH: EVQLVESGGGLVKPGGSLKLSCAASGFTFSNYAMSWVRQTPEKRLEWVATVTEGGDYNYYLDDVKGRFTISRDNANDNLYLQMSHLKSEDSARYYCARDRWPYFFDYWGQGTTLTVSS
VL: DIQMTQSPASLSVSVGETVTITCRASENIYSNLAWYQQKQGRSPQLLVYGAKNLADGVPSRFSGSGSGTQYSLNINSLQSEDFGTYYCQHFWTTPRTFGGGTKLEIK
notes: Murine VL and VH, human CL and IgG1 CH1-CH3 domains with effectorless N297G
In the case of B1, the “NK cells, IL-33+IL-12 stimulated IFN-γ, IC50” value [1] is reported as 2.9 nM, the “PHLF, IL-1α stimulated IL-8, IC50” value [1] is reported as 3.96 nM and the “PHLF, IL-36β stimulated IL-8, IC50” value [1] is reported as 0.284 nM. For the same binder, the “monocytes, IL-1β stimulated IL-6, IC50” value [1] was 0.733 nM and the Kd [2] was 0.446 nM.

B2: h11C5 variant K13/H3 IgG (YIS) (antibody)
heavy: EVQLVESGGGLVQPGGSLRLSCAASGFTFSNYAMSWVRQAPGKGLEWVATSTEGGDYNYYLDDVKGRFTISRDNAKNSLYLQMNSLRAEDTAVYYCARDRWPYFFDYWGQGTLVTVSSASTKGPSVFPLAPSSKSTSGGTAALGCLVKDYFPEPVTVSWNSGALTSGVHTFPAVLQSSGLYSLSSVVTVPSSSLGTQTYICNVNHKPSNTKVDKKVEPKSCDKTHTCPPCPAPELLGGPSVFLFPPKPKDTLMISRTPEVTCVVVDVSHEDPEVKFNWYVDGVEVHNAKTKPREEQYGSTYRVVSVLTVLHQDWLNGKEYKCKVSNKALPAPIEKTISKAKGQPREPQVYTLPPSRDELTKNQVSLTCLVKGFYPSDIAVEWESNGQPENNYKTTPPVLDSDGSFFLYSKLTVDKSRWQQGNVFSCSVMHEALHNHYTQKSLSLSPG
light: DIQMTQSPSSLSASVGDRVTITCRASENIYSNLAWYQQKPGKSPKLLVYGYKNLADGVPSRFSGSGSGTDYTLTISSLQPEDFATYYCQHFITTPRTFGGGTKVEIKRTVAAPSVFIFPPSDEQLKSGTASVVCLLNNFYPREAKVQWKVDNALQSGNSQESVTEQDSKDSTYSLSSTLTLSKADYEKHKVYACEVTHQGLSSPVTKSFNRGEC
notes: Human IgG1 N297G; also called 11C5-YIS
A Kd [3] of 0.0116 nM, a koff [3] of 3.34e-05 s⁻¹ and a kon [3] of 2.87e+06 M⁻¹ s⁻¹ were found for B2 in this work. The Kd [4] was 0.013 nM, the koff [4] was 3.33e-05 s⁻¹ and the kon [4] was 2.55e+06 M⁻¹ s⁻¹. The “KD (6)/KD (7.4)” value [5] was 2.5 ratio, the “KD (7.4) ratio to YIS” value [5] was 1 ratio and the “koff (6) ratio to YIS” value [5] was 1 ratio. The “KD (6)/KD (7.4)” value [6] was 3.3 ratio, the “KD (7.4) ratio to YIS” value [6] was 1 ratio and the “koff (6) ratio to YIS” value [6] was 1 ratio. For the same binder, the Kd [7] was 0.014 nM, the koff [7] was 3e-05 s⁻¹ and the kon [7] was 2.14e+06 M⁻¹ s⁻¹. The Kd [8] was 0.0213 nM, the koff [8] was 3.94e-05 s⁻¹ and the kon [8] was 1.85e+06 M⁻¹ s⁻¹. For the same binder, the Kd [9] was 0.0345 nM, the koff [9] was 6.94e-05 s⁻¹ and the kon [9] was 2.01e+06 M⁻¹ s⁻¹. For the same binder, the Kd [10] was 0.0705 nM, the koff [10] was 0.00015 s⁻¹ and the kon [10] was 2.12e+06 M⁻¹ s⁻¹. For the same binder, the “HEK-Blue, IL-1β, % inhibition at 100 nM (IgG)” value (“HEK-Blue, IL-1β, % inhibition” for short) [11] was 100%, the “HEK-Blue, IL-1β, IC50 (IgG)” value [11] was 0.251 nM and the “HEK-Blue, IL-33, % inhibition at 100 nM (IgG)” value (from here on “HEK-Blue, IL-33, % inhibition”) [11] was 98%. The “HEK-Blue, IL-33, IC50 (IgG)” value [11] was 0.425 nM, the “HEK-Blue, IL-36α, % inhibition at 100 nM (IgG)” value (from here on “HEK-Blue, IL-36α, % inhibition”) [11] was 100% and the “HEK-Blue, IL-36α, IC50 (IgG)” value [11] was 0.232 nM.

B3: h11C5 variant K17/H3 IgG (YKS) (antibody, V domains shown)
VH: EVQLVESGGGLVQPGGSLRLSCAASGFTFSNYAMSWVRQAPGKGLEWVATSTEGGDYNYYLDDVKGRFTISRDNAKNSLYLQMNSLRAEDTAVYYCARDRWPYFFDYWGQGTLVTVSS
VL: DIQMTQSPSSLSASVGDRVTITCRASENIYSNLAWYQQKPGKSPKLLVYGYKNLADGVPSRFSGSGSGTDYTLTISSLQPEDFATYYCQHFKTTPRTFGGGTKVEIKR
notes: Human IgG1 N297G; also called 11C5-YKS
With B3 the “KD (6)/KD (7.4)” value [5] was 4.6 ratio, the “KD (7.4) ratio to YIS” value [5] was 1.6 ratio and the “koff (6) ratio to YIS” value [5] was 1.7 ratio. The “KD (6)/KD (7.4)” value [6] was 4.3 ratio, the “KD (7.4) ratio to YIS” value [6] was 1.1 ratio and the “koff (6) ratio to YIS” value [6] was 1.2 ratio. For the same binder, the Kd [7] was 0.0221 nM, the koff [7] was 4.51e-05 s⁻¹ and the kon [7] was 2.04e+06 M⁻¹ s⁻¹. For the same binder, the Kd [8] was 0.0226 nM, the koff [8] was 3.87e-05 s⁻¹ and the kon [8] was 1.71e+06 M⁻¹ s⁻¹. It also gave a Kd [9] of 0.101 nM, a koff [9] of 0.000121 s⁻¹ and a kon [9] of 1.2e+06 M⁻¹ s⁻¹. For the same binder, the Kd [10] was 0.0962 nM, the koff [10] was 0.000182 s⁻¹ and the kon [10] was 1.9e+06 M⁻¹ s⁻¹. For the same binder, the “HEK-Blue, IL-1β, % inhibition” value [11] was 100%, the “HEK-Blue, IL-1β, IC50 (IgG)” value [11] was 0.429 nM and the “HEK-Blue, IL-33, % inhibition” value [11] was 87%. For the same binder, the “HEK-Blue, IL-33, IC50 (IgG)” value [11] was 2.5 nM, the “HEK-Blue, IL-36α, % inhibition” value [11] was 96% and the “HEK-Blue, IL-36α, IC50 (IgG)” value [11] was 0.418 nM.

B4: h11C5 variant K13/H2 IgG (YID) (antibody, V domains shown)
VH: B3 VH with S51V, R100D
VL: B3 VL with K92I
notes: Human IgG1 N297G; also called 11C5-YID
In the case of B4, the “KD (6)/KD (7.4)” value [5] is reported as 4.1 ratio, the “KD (7.4) ratio to YIS” value [5] is reported as 1.7 ratio and the “koff (6) ratio to YIS” value [5] is reported as 3 ratio. For the same binder, the “KD (6)/KD (7.4)” value [6] was 10 ratio, the “KD (7.4) ratio to YIS” value [6] was 0.66 ratio and the “koff (6) ratio to YIS” value [6] was 2.8 ratio. It also gave a Kd [7] of 0.0244 nM, a koff [7] of 4.62e-05 s⁻¹ and a kon [7] of 1.89e+06 M⁻¹ s⁻¹. The Kd [8] was 0.014 nM, the koff [8] was 2.69e-05 s⁻¹ and the kon [8] was 1.93e+06 M⁻¹ s⁻¹. For the same binder, the Kd [9] was 0.0993 nM, the koff [9] was 0.000215 s⁻¹ and the kon [9] was 2.16e+06 M⁻¹ s⁻¹. For the same binder, the Kd [10] was 0.141 nM, the koff [10] was 0.000414 s⁻¹ and the kon [10] was 2.94e+06 M⁻¹ s⁻¹. For the same binder, the “HEK-Blue, IL-1β, % inhibition” value [11] was 100%, the “HEK-Blue, IL-1β, IC50 (IgG)” value [11] was 0.361 nM and the “HEK-Blue, IL-33, % inhibition” value [11] was 99%. The “HEK-Blue, IL-33, IC50 (IgG)” value [11] was 1.52 nM, the “HEK-Blue, IL-36α, % inhibition” value [11] was 100% and the “HEK-Blue, IL-36α, IC50 (IgG)” value [11] was 0.477 nM.
